The target of assay [1] is T1, human LgR5 ECD (amino acids 22-557 fused to His-Fc expressed in a baculovirus system, or amino acids 22-558 … (human, UniProt O75473 22-557)).
T1 construct: not shown: C-terminal His-tagged Fc
T1 sequence: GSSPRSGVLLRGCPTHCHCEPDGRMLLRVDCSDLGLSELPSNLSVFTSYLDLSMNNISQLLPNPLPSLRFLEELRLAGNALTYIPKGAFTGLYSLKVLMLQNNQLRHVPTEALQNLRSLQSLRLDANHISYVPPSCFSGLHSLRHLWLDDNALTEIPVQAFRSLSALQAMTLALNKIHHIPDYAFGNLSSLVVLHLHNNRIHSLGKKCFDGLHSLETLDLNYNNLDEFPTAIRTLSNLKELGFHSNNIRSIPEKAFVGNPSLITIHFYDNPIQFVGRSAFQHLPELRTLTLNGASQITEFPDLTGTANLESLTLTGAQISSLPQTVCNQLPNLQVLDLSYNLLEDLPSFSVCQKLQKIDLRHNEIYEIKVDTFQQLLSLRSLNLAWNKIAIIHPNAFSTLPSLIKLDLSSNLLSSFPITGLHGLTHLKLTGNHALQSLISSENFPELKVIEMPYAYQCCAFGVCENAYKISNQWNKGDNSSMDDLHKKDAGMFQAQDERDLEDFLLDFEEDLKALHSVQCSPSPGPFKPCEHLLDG
Description: SPR (BIAcore-3000), antibody captured by anti-human Fc, LgR5 ECD-Fc injected. (In general: SPR reads the build-up and loss of mass on a sensor chip optically.)

Assay [2] concerns the target T2, gD epitope-tagged rat LgR5 expressed on stably transfected 293 cells (rat, UniProt D4AC13 22-907).
T2 construct: also called gD-tagged rat LgR5
T2 sequence: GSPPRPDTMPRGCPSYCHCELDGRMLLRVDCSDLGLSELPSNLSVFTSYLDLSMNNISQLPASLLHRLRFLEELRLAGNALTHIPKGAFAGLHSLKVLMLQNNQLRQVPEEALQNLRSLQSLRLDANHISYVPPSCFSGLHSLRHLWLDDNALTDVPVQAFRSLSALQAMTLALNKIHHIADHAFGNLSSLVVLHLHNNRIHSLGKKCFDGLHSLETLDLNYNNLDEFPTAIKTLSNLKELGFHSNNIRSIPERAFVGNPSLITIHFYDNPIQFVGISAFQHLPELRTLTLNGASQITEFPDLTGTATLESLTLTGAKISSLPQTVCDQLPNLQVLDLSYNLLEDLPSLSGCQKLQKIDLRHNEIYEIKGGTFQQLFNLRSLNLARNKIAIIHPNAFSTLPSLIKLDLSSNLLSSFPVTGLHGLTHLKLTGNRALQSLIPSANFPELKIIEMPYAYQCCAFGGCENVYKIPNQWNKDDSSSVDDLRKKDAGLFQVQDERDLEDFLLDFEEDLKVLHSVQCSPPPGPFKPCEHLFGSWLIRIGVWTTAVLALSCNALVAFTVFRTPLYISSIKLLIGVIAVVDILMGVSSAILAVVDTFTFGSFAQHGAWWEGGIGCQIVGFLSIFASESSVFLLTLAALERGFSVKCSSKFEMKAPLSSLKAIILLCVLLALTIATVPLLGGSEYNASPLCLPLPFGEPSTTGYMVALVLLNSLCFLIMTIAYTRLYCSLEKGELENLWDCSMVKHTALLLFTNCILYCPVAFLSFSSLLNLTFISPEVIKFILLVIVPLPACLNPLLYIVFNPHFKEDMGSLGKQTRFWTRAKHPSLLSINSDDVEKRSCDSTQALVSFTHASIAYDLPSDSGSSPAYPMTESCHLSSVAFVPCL
Briefly: FACS on 293 cells stably transfected with gD epitope-tagged LgR5, 10 ug/ml antibody, R-Phycoerythrin goat anti-human detection. Here is the method: Monoclonal antibodies were tested to determine if they cross-react with LgR5 from species other than human. […] Residues that are identical among all four species are indicated by asterisks (*). […] YW353 antibody binds human and cynomolgus monkey LgR5, but not rat or mouse LgR5. Ch8E11 and hu8E11.v2 antibodies bind all four species of LgR5, although binding to rat LgR5 is not as strong as binding to human, cynomolgus monkey, or mouse LgR5. 2H6 antibody binds to human and mouse LgR5, and was not tested for binding to cynomolgus monkey or rat LgR5.

B1: chimeric monoclonal antibody 8E11 (antibody, human IgG1, V domains shown)
VH: QVQLQQSGTELMKPGASVKISCKATGYTFSAYWIEWIKQRPGHGLEWIGEILPGSDSTDYNEKFKVKATFSSDTSSNTVYIQLNSLTYEDSAVYYCARGGHYGSLDYWGQGTTLKVSS
VL: NIVLTQSPASLAVSLGQRATISCRASESVDNYGNSFMHWYQQKPGQPPKLLIYLASNLESGVPARFSGSGSRTDFTLTIDPVEADDAATYYCQQNYEDPFTFGSGTKVEIKR
notes: also called ch8E11; chimeric 8E11
B1 had a Kd in assay [1] of 2.4 nM. Further, the binding result in assay [2] is listed as “binds”.

B2: human antibody YW353 (antibody, human IgG1, kappa, V domains shown)
VH: EVQLVESGGGLVQPGGSLRLSCAASGFTFTSYSISWVRQAPGKGLEWVAEIYPPGGYTDYADSVKGRFTISADTSKNTAYLQMNSLRAEDTAVYYCAKARLFFDYWGQGTLVTVSS
VL: DIQMTQSPSSLSASVGDRVTITCRASQDVSTAVAWYQQKPGKAPKLLIYSASFLYSGVPSRFSGSGSGTDFTLTISSLQPEDFATYYCQQSYTTPPTFGQGTKVEIKR
notes: also called huYW353
With B2, binding in assay [1] was characterised by a dissociation constant (Kd) of 1.6 nM.

The Kd is the constant that tells how readily two partners part at equilibrium.
